Reference: patent publication US20260209330A1, “S100A7 AS A DIAGNOSTIC MARKER AND THERAPEUTIC TARGET FOR DISORDERS” (Ohio State Innovation Foundation, priority 2022, published 2026)

B1: S100A7 nAb: novel monoclonal S100A7 neutralizing antibody, hybridoma clone 28F8-2; heavy chain SEQ ID NO: 4, light chain SEQ ID NO: 8 (antibody)
heavy: MRVLILLWLFTAFPGILSDVQLQESGPGLVKPSQSLSLTCTVTGYSITSDYAWNWIRQFPGNKLEWMGYISYSGYTSYNPSLKSRISITRDTSKNQFFLQLNSVTTEDTTTYYCTRGGKGPMDYWGQGTSVTVSSAKTTPPSVYPLAPGSAAQTNSMVTLGCLVKGYFPEPVTVTWNSGSLSSGVHTFPAVLQSDLYTLSSSVTVPSSTWPSETVTCNVAHPASSTKVDKKIVPRDCGCKPCICTVPEVSSVFIFPPKPKDVLTITLTPKVTCVVVDISKDDPEVQFSWFVDDVEVHTAQTQPREEQFNSTFRSVSELPIMHQDWLNGKEFKCRVNSAAFPAPIEKTISKTKGRPKAPQVYTIPPPKEQMAKDKVSLTCMITDFFPEDITVEWQWNGQPAENYKNTQPIMDTDGSYFVYSKLNVQKSNWEAGNTFTCSVLHEGLHNHHTEKSLSHSPGK
light: MKSQTQVFVFLLLCVSGAHGSIVMTQTPKFLLVSAGDRVTITCKASQSVSNDVAWYHQKPGQSPKLLIYYASNRYTGVPDRFTGSGYGTDFTFTISTVQAEDLAVYFCQQDYSSPYTFGGGTKLEIKRADAAPTVSIFPPSSEQLTSGGASVVCFLNNFYPKDINVKWKIDGSERQNGVLNSWTDQDSKDSTYSMSSTLTLTKDEYERHNSYTCEATHKTSTSPIVKSFNRNEC
modifications: Description of sequence: Heavy Chain; Description of sequence: Light Chain

Legend:
[1] = breast cancer patients; reported; cited from earlier work
PD-L1 = experiment: S100A7-induced PD-L1 expression by Western blot; assay type: cell-based; details: MDA-MB-231 cells; nAb clone 28F8-2 300 ng/μl; recombinant human S100A7 100 ng/ml; GAPDH loading control
Description: (§1) MDA-MB-231 cells were treated with hS100A7 neutralizing antibody (clone 28F8-2; 300 ng/μl) or control IgG or PBS in the presence or absence of recombinant human S100A7 (100 ng/ml) and spheroid invasion assay was performed by using 3D-Cultrex spheroid invasion kit. […] FIG. 9B show the bar diagram representing the invaded area of spheroids. The area between red and blue circles represents the invaded area. […] GAPDH was used as a loading control. S100A7 overexpressing MDA-MB-231 cells (1×10^6) were injected into the female NCG mice. After the onset of palpable tumors, mice were either treated with vehicle control (VC), S100A7 nAb ([…], i.p. route; clone 28F8-2; two times a week) alone or in combination with ASB-14780 (50 mg/kg·bt, oral route; three times a week). […] FIGS. 9F, 9G, and 9H show the analysis of tumor volume, tumor weight, and liver metastasis of control IgG, S100A7 nAb, ASB-14780, and combination-treated. *** is p<0.001; **** is p<0.0001. One way ANOVA and t test were used for calculating statistical significance.
Western blotting, adipokine array and Immunohistochemistry (IHC). Cell or tissue lysates were analyzed by Western blotting. Briefly, samples were run on NuPAGE 4-12% gradient precast gels (Invitrogen) and probed with primary antibodies (Table 1), followed by secondary antibodies incubation, and were developed. […]

MDA-MB-231 cells [2] = experiment: 3D-Spheroid invasion assay (3D-Cultrex spheroid invasion kit); assay type: cell-based; details: nAb clone 28F8-2 300 ng/μl; recombinant human S100A7 100 ng/ml; vs control IgG or PBS; invaded area on 10th day
Description: as §1
(§2) Trans-well migration assay and 3D-Spheroid invasion assay. MDA-MB-231 cells were treated with hS100A7 neutralizing antibody (clone 28F8-2; 300 ng/μl) or control IgG or PBS in the presence or absence of recombinant human S100A7 (100 ng/ml). […] On the 10th day, the invaded area was calculated by using the image-J plugin.

[3] = HFD-induced obesity in wild type female FVB mice; assay type: in vivo, mouse; details: FVB mice on HFD; nAb i.p. two times a week, alone or with reboxetine 20 mg/kg·bt i.p. twice a week; vs control IgG treated group
Description: (§3) FIGS. 10C, 10D, 10E, 10F, and 10G show the analysis of body weight, vWAT mass (gm), tumor volume, tumor weight (gm), and Lung metastasis of VC, S100A7 nAb, Reb and combo-treated animals. *P<0.05, ** P<0.01. One way ANOVA was used for calculating statistical significance. Mouse models, obesity tumor growth analyses and flow cytometry. The NCG and wild-type 6 weeks old female FVB mice (6 weeks old) were obtained from the Charles River. S100A7 overexpressing MDA-MB-231 cells (1×10^6) were injected into the 4th mammary fat pad of NCG mice. While Mvt1 cells (1×10^5) were injected into the mammary fat pad of wild type FVB mice fed with HFD. […] Mvt-1 cells (1×10^5) were also injected into the mammary glands of S100A7 floxed (control) and KO mice. Body weights and tumors were measured weekly, and volume was calculated. In the endpoints, animals were sacrificed, and tumors and other organs were excised. All mice were kept in The OSU's animal facility in compliance with the guidelines and protocols approved by the OSU-IACUC. For flow cytometry, freshly prepared single-cell suspensions of spleen samples harvested from non-tumor bearing S100A7 floxed and KO mice were incubated with an Fc receptor blocker followed by staining with different fluorochrome-conjugated antibodies (Table 1). After staining, cells were evaluated by FACS Fortessa using CellQuest software (BD Biosciences)

Mvt1 cells = experiment: Mvt1-generated syngeneic breast tumor model in HFD-induced obese mice; assay type: in vivo, mouse; details: HFD-induced obese FVB mice with Mvt1 tumors; nAb i.p. two times a week, alone or with reboxetine 20 mg/kg·bt i.p. twice a week
Description: as §3

MDA-MB-231 cells [4] = experiment: Trans-well migration assay; assay type: cell-based; details: nAb clone 28F8-2 300 ng/μl; recombinant human S100A7 100 ng/ml; overnight, transwell chambers
Description: as §1, §2

| Molecule | depressive symptoms [1] | tolerability [1] | S100A7-induced PD-L1 expression (PD-L1) | S100A7-mediated invasiveness of spheroid cells (invaded area) (MDA-MB-231 cells [2]) | HFD-induced body weight gain [3] | visceral fat accumulation (vWAT mass) [3] | lung metastasis (Mvt1 cells) | tumor growth (tumor volume, tumor weight) (Mvt1 cells) | S100A7-mediated migration of TNBC cells (MDA-MB-231 cells [4]) |
| --- | --- | --- | --- | --- | --- | --- | --- | --- | --- |
| CCOc1ccccc1OC(c1ccccc1)C1CNCCO1 (stereo not drawn) [reboxetine] | reduces | well tolerated | – | – | – | – | – | – | – |
| B1 | – | – | decreases | reduced | significantly inhibited | significantly inhibited | significantly reduced | significantly reduced | inhibits |
